How the values were obtained:
[1] = molecular target: GST-Cdc42 constitutively active (CA/Q61L), preloaded with GTPγS (UniProt P60953); assay: pull-down; Glutathione-Sepharose beads coated with GST alone or GST-GTPase fusions pre-loaded with GDP (DN) or GTPγS (CA), incubated with lysates of HEK293T cells expressing GFP-CRN7 WT or CRIB mutants; blot with GFP mAb K3-184-2 or anti-N-WASP; ImageJ quantification, input set at 100%
[2] = molecular target: GST-Cdc42 dominant negative (DN/T17N), preloaded with GDP (UniProt P60953); assay: GST pull-down, western blot quantified with ImageJ; conditions: GST-Cdc42 DN on Glutathione-Sepharose beads pre-loaded with GDP; lysates from HEK293T cells; input set at 100%; 3 independent experiments; parent: est. 60; read off a plot
GST-Cdc42 dominant negative (DN/T17N), preloaded with GDP, sequence (P60953 whole entry T17N): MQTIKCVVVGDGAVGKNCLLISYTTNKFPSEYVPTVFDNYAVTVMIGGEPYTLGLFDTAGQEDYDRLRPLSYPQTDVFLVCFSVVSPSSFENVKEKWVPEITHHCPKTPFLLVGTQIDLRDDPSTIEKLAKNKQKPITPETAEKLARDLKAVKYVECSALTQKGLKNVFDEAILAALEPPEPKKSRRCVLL

[3] = molecular target: GST-Cdc42 constitutively active (CA/Q61L), preloaded with GTPγS (UniProt P60953); assay: GST pull-down, western blot quantified with ImageJ; conditions: GST-Cdc42 CA on Glutathione-Sepharose beads pre-loaded with GTPγS; lysates from HEK293T cells; input set at 100%; 3 independent experiments; parent: est. 19; read off a plot

GST-Cdc42 constitutively active (CA/Q61L), preloaded with GTPγS, sequence (P60953 whole entry Q61L, the tested form may be a part): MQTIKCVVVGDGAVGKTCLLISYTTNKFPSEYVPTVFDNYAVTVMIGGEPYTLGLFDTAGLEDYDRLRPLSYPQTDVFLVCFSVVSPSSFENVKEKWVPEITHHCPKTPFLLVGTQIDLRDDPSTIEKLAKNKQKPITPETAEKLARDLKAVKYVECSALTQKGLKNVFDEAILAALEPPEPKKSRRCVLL
GFP-CRN7 WT (human Coronin7, full length, GFP on its N-terminus) (from UniProt P57737) CT-CRIB L>A; T>A; P>A (… > …); residue numbers not printed, sequence (P57737 whole entry, change not shown): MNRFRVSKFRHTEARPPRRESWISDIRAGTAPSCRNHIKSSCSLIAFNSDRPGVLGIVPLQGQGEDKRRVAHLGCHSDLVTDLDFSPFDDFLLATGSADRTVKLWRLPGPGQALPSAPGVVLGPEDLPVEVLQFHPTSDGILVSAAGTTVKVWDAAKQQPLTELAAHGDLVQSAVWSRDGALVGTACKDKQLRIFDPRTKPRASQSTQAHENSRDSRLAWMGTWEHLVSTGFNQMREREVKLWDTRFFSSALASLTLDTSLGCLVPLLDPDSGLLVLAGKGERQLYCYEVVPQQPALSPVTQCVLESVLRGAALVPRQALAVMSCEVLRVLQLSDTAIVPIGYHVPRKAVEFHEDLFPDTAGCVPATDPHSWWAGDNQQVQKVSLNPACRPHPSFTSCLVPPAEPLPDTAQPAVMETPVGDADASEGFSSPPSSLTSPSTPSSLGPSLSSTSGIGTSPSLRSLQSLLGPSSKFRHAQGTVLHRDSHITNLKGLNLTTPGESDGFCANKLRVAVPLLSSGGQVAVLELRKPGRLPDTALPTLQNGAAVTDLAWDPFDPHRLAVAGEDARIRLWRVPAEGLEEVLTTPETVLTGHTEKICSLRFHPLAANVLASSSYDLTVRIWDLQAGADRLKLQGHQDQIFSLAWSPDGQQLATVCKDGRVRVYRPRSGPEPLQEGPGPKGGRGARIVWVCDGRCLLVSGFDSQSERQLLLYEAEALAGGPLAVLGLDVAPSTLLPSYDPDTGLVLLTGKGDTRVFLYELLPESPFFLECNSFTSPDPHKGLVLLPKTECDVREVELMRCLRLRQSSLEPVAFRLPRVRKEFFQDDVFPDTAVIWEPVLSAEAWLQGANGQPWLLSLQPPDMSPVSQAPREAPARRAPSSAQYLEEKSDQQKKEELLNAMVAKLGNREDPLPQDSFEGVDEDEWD
GFP-CRN7 WT (human Coronin7, full length, GFP on its N-terminus) (from UniProt P57737) NT-CRIB S>A; P>A (… > …); residue numbers not printed, sequence (P57737 whole entry, change not shown): as above

GFP-CRN7 WT (human Coronin7, full length, GFP on its N-terminus) (from UniProt P57737 1-925) (natural protein)
percent of input bound [1]: 30 % of input

GFP-CRN7 WT (human Coronin7, full length, GFP on its N-terminus) (from UniProt P57737) NT-CRIB S>A; P>A (… > …); residue numbers not printed
response [2]: 67 % of input | response [3]: 32 % of input

GFP-CRN7 WT (human Coronin7, full length, GFP on its N-terminus) (from UniProt P57737) CT-CRIB L>A; T>A; P>A (… > …); residue numbers not printed
response [2]: 57 % of input | response [3]: 41 % of input

From PMC4855144
